Legend:
14-3-3η = 14-3-3η (UniProt Q04917); assay: direct fluorescence polarisation titration; conditions: reference: peptide 7 (pS43 only)
14-3-3β/α = 14-3-3β/α (UniProt P31946); assay: direct fluorescence polarisation titration; conditions: reference: peptide 7 (pS43 only)
14-3-3σ (stratifin, SFN) = 14-3-3σ (stratifin, SFN) (UniProt P31947); assay: direct fluorescence polarisation titration; conditions: reference: peptide 7 (pS43 only)
[1] = biological target: fluorescently labeled peptide 11, APN 36–73 pSer43 pThr63 (human) (UniProt P15144); assay: fluorescence polarisation; direct binding: dilution series of 14-3-3 protein added to FITC-labeled peptide (30 nM stock, 5 µl in 15 µl); 10 mM HEPES pH 7.4, 150 mM NaCl, 2 mM DTT, 0.01% Tween 20; 60 min at room temperature, read at 25 °C; four-parameter fit
fluorescently labeled peptide 11, APN 36–73 pSer43 pThr63 (human), sequence (P15144 36-73): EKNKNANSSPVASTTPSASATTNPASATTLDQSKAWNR

[2] = biological target: fluorescently labeled peptide 7, APN 36–73 pSer43 (human) (UniProt P15144); assay: as above
fluorescently labeled peptide 7, APN 36–73 pSer43 (human), sequence (P15144 36-73): as above

[3] = biological target: peptide 11, APN 36–73 pSer43 pThr63, as used in ITC and co-crystallisation (human) (UniProt P15144); assay: ITC; 14-3-3η (500 µM; 250 µM for peptide 11) titrated into peptide (50 µM; 12.5 µM for peptide 11), 18 injections; 50 mM HEPES pH 7.4, 250 mM NaCl, 20 mM MgCl2; 25 °C
peptide 11, APN 36–73 pSer43 pThr63, as used in ITC and co-crystallisation (human), sequence (P15144 36-73): as above

[4] = biological target: peptide 7, APN 36–73 pSer43, as used in ITC (human) (UniProt P15144); assay: as above
peptide 7, APN 36–73 pSer43, as used in ITC (human), sequence (P15144 36-73): as above

For “Aminopeptidase N (APN, CD13) 36-73 (from UniProt P15144) peptide 10 (pS43 pS61)”, the “binding against the reference” value (14-3-3η; sites S61) was “stronger”, the “binding against the reference” value (14-3-3β/α; sites S61) was “stronger” and the “binding against the reference” value (14-3-3σ (stratifin, SFN); sites S61) was “stronger”.
“Aminopeptidase N (APN, CD13) 36-73 (from UniProt P15144) peptide 12 (pS43 pT64)” was tested, and the “binding against the reference” value (14-3-3η; sites T64) was “stronger”, the “binding against the reference” value (14-3-3β/α; sites T64) was “stronger” and the “binding against the reference” value (14-3-3σ (stratifin, SFN); sites T64) was “stronger”.
In the case of “Aminopeptidase N (APN, CD13) 36-73 (from UniProt P15144) peptide 11 (pS43 pT63)”, the “binding against the reference” value (14-3-3β/α; sites T63) is reported as “stronger” and the “binding against the reference” value (14-3-3σ (stratifin, SFN); sites T63) is reported as “stronger”.
“14-3-3η, full length, N-terminally His6-tagged (from UniProt Q04917 1-246) (natural protein)” was tested, and the Kd [1] was 0.046 µM, the Kd [2] was 24 µM and the Kd [3] was 0.14 µM. It also gave a stoichiometry N [3] of 0.58, a Kd [4] of 40.7 µM and a stoichiometry N [4] of 1.13.

Reference: article PMC7939381, “MMP activation–associated aminopeptidase N reveals a bivalent 14-3-3 binding motif” (The Journal of Biological Chemistry, 2021)
